# In patent publication US20160347840A1 (Janssen / Centocor, published 2016):
# B1: CD3B150 (antibody, human IgG1, V domains shown)
# VH: EVQLLESGGGLVQPGGSLRLSCAASGFTFNTYAMNWVRQAPGKGLEWVARIRSKYNNYATYYADSVKGRFTISRDNSKNTLYLQMNSLRAEDTAVYYCAKHGNFGNSYVSWFAYWGQGTLVTVSS
# VL: QTVVTQEPSLTVSPGGTVTLTCRSSTGAVTTSNYANWVQQKPGQAPRGLIGGTNKRAPGTPARFSGSLLGGKAALTLSGVQPEDEAEYYCALWYSNLWVFGGGTKLTVL
# notes: Humanized SP34 variant; human IgG1 constant region with L234A, L235A, F405L; human lambda constant region; also called CDB150
# B2: CD3B151 (antibody, human IgG1, V domains shown)
# VH: EVQLLESGGGLVQPGGSLRLSCAASGFTFNTYAMNWVRQAPGKGLEWVARIRSKYNNYATYYADSVKGRFTISRDNSKNTLYLQMNSLRAEDTAVYYCVKHGNFGNSYVSWFAYWGQGTLVTVSS
# VL: QAVVTQEPSLTVSPGGTVTLTCRSSTGAVTTSNYANWVQQKPGQAPRGLIGGTNKRAPGTPARFSGSLLGGKAALTLSGAQPEDEAEYYCALWYSNLWVFGGGTKLTVL
# notes: Humanized SP34 variant; human IgG1 constant region with L234A, L235A, F405L; human lambda constant region; also called CDB151
# Tests used:
# [1] = target: T1, cell-surface CD3E on primary human T cells (human, UniProt P07766 23-207); assay: flow cytometry on primary human T cells, anti-human IgG Alexa Fluor 647 secondary
# T1 construct: whole, on cells; On the cells CD3E stands in the CD3/T cell receptor complex; also called human CD3
# T1 sequence (P07766 23-207): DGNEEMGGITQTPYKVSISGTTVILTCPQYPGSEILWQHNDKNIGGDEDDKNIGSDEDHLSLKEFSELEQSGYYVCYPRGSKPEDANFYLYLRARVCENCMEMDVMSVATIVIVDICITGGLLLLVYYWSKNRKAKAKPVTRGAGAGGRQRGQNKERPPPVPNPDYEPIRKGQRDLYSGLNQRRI
# Experimental: (§1) The resulting panel of anti-CD3 antibodies was tested for binding against cell-surface CD3E on primary human T cells. To do this, binding of antibodies from expression supernatants was visualized using a polyclonal anti-human secondary antibody and analyzed by flow cytometry. Briefly, binding of anti-CD3 antibodies to cell-surface CD3E was assessed by flow cytometry using primary Human T lymphocytes purified by negative selection (Biological Specialty, Colmar, USA). Expression supernatants or purified antibodies were normalized to 10 μg/ml in media or FACS buffer (BD BioSciences), respectively. 2×10⁵ cells were aliquoted into wells of a 96 well round-bottomed plate (CoStar) for labeling. Antibodies in expression supernatant were added to cells and incubated for 45 min at 4° C. Following centrifugation at 1300 rpm for 3 min and removal of supernatant, 50 μL of anti-human IgG (H+L) Alexa Fluor 647 secondary antibody (Life technologies Inc.) was incubated with the cells at a final concentration of 10 μg/mL for 30 min at 4° C. away from direct light. Following washing and resuspension in 30 μL FACs buffer (BD BioSciences). Sample collection was performed on an Intellicyt HTFC system using ForeCyt software. Viable single cells were gated prior to analysis of binding using the green or red fixable live/dead dyes (Life Technologies Inc.) and forward/side scatter area and height parameters, respectively. Graphs were generated in GraphPad Prism version 5 using mean fluorescence intensity values.
# Two in-house phage-derived antibodies with the same Fc region as the therapeutic antibodies were used as controls: G11 (HC SEQ ID NO:176, LC SEQ ID NO:177), a non-cyno cross-reactive, agonistic antibody was used as a positive control and CD3B94 (HC-SEQ ID NO:178, LC—SEQ ID NO:179) a non-binder/non-agonistic antibody was used to assess non-specific binding. The commercial SP34 antibody was not used as a comparator in this assay since it is a mouse antibody and the use of a different secondary detection reagent would have prohibited direct comparison with the variants tested.
# [2] = target: T2, cynomolgus CD3E on primary cynomolgus CD4+ T cells (cynomolgus, UniProt Q95LI5 22-198); assay: flow cytometry on primary cynomolgus CD4+ T cells
# T2 construct: whole, on cells; On the cells CD3E stands in the CD3/T cell receptor complex
# T2 sequence (Q95LI5 22-198): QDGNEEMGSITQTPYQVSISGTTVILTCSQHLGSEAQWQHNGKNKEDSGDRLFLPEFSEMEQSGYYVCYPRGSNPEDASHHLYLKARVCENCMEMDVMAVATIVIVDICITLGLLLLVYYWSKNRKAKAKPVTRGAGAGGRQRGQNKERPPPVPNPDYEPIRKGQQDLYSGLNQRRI
# Experimental: as §1
# Binding analysis of the anti-CD3 hits to primary cynomolgusCD4+ T cells was then tested in order to assess the retention of cross-reactivity. Purified CD4+ T cells from the peripheral blood of cynomolgus monkeys (Zen Bio, Triangle Research Park, USA were used). Assay protocols were similar to those described above. […] This included the strong binders CD3B150, CD3B151 and CD3B154, in which binding was reduced, and several weak binders where binding could no longer be detected over background.
Binder,binding result [1],binding result [2]
B1,binds,binds
B2,binds,binds
